Test results: US20260265348A1 (HEIDELBERG IMMUNOTHERAPEUTICS, published 2026)

Experiments:
[1] = biological target: T1, recombinant HSV-1F glycoprotein B (gB) ectodomain (aa 30-729), trimeric (HSV-1 strain F, UniProt P06436 30-729); assay: BLI (Octet), biotinylated gB on streptavidin tips, IgG in solution; full IgG, not Fab
T1 construct: also called recombinant HSV-1 gB; HSV-1F gB

[2] = biological target: T2, HSV-1F gB R304Q (HDIT101-resistance mutant) (HSV-1 strain F, UniProt P06436 30-903); assay: flow cytometry of HEK293T cells transfected with a gB plasmid, FITC anti-human Fc secondary antibody, iMFI
T2 construct: also called gB of HSV-1FHDIT101R

[3] = biological target: T1, recombinant HSV-1F glycoprotein B (gB) …; assay: BLI (Octet), Fab, Kd=kdis/ka
[4] = biological target: T1, recombinant HSV-1F glycoprotein B (gB) …; assay: BLI (Octet), biotinylated gB on streptavidin tips, Fab dilution series, global 1:1 fit
[5] = biological target: T1, recombinant HSV-1F glycoprotein B (gB) …; assay: BLI (Octet), biotinylated gB on streptavidin tips, Fab dilution series, global 1:1 fit; Fab; HSV-1F gB
[6] = biological target: HSV-1F gB D199A (HSV-1 strain F, UniProt P06436 30-903); assay: cell-based or functional assay
[7] = biological target: HSV-1F gB K204A (HSV-1 strain F, UniProt P06436 30-903); assay: cell-based or functional assay
[8] = biological target: T2, HSV-1F gB R304Q (HDIT101-resistance …); assay: cell-based or functional assay
[9] = biological target: HSV-1F gB K320A (HSV-1 strain F, UniProt P06436 30-903); assay: cell-based or functional assay
[10] = biological target: HSV-1F gB Y326A (HSV-1 strain F, UniProt P06436 30-903); assay: cell-based or functional assay
[11] = biological target: HSV-1F gB R335A (HSV-1 strain F, UniProt P06436 30-903); assay: cell-based or functional assay
[12] = biological target: HSV-1F gB R335Q (HDIT102(H4)-resistant escape mutant) (HSV-1 strain F, UniProt P06436 30-903); assay: cell-based or functional assay
[13] = biological target: glycoprotein B (gB) of HSV-1 strain F, full length, wild type (HSV-1 strain F, UniProt P06436 30-903); assay: cell-based or functional assay
[14] = biological target: glycoprotein B (gB) of HSV-2 strain G, full length, wild type (HSV-2 strain G); assay: cell-based or functional assay

B1: HDIT101, humanized IgG1 MAb2c (antibody, V domains shown)
VH: QVTLKESGPALVKPTQTLTLTCTFSGFSLSTSGMSVGWIRQPPGKALEWLAHIWWNNDKYYKPALKSRLTISKDTSKNQVVLTMTNMDPVDTATYYCARIYYGYRPYAMDYWGQGTLVTVSS
VL: DIVMTQTPLSLPVTPGEPASISCRSSQSIVHSNGNTYLEWYLQKPGQSPQLLIYKVSNRFSGVPDRFSGSGSGTDFTLKISRVEAEDVGVYYCFQGSHVPWSFGQGTKVEIKR
notes: also called MAb hu2c; HDIT101 IgG
[1]
  koff: ~0.0011 s⁻¹
[2]
  binding result: no binding

B2: HDIT101 Fab (Fab, V domains shown)
VH: QVTLKESGPALVKPTQTLTLTCTFSGFSLSTSGMSVGWIRQPPGKALEWLAHIWWNNDKYYKPALKSRLTISKDTSKNQVVLTMTNMDPVDTATYYCARIYYGYRPYAMDYWGQGTLVTVSS
VL: DIVMTQTPLSLPVTPGEPASISCRSSQSIVHSNGNTYLEWYLQKPGQSPQLLIYKVSNRFSGVPDRFSGSGSGTDFTLKISRVEAEDVGVYYCFQGSHVPWSFGQGTKVEIKR
[3]
  Kd: 7.26 nM
[4]
  koff: 0.00313 s⁻¹
[5]
  kon: 435000 M⁻¹ s⁻¹

B3: HDIT102(H4), fully human IgG1 anti-HSV gB antibody (antibody, V domains shown)
VH: EVQLVQSGAEVKTPGASVRVSCKASGHTFRTFDINWVRQAAGQGLEWMGWMSPNSGNTGYARQFQGRVTMTRNISANTAYMELRGLRFDDTAVYYCARGPGSTGTTGSMDVWGQGTTVTVSS
VL: QAGLTQPPSVSVAPGKTARISCGGNNIGSKSVHWYQQKPGQAPVLVIYYDSDRPSGIPERFSGSNSGNTATLTISRVEAGDEADYYCQVWDSGSVVFGGGTKLTVLG
[6]
  inhibition of gB-mediated cell-cell fusion by HDIT102(H4) (75 µg/ml), relative to wild type gB: 32.9 % of WT
[7]
  inhibition of gB-mediated cell-cell fusion by HDIT102(H4) (75 µg/ml), relative to wild type gB: 57.3 % of WT
[8]
  inhibition of gB-mediated cell-cell fusion by HDIT102(H4) (75 µg/ml), relative to wild type gB: 92.3 % of WT
[9]
  inhibition of gB-mediated cell-cell fusion by HDIT102(H4) (75 µg/ml), relative to wild type gB: 90.1 % of WT
[10]
  inhibition of gB-mediated cell-cell fusion by HDIT102(H4) (75 µg/ml), relative to wild type gB: 72.7 % of WT
[11]
  inhibition of gB-mediated cell-cell fusion by HDIT102(H4) (75 µg/ml), relative to wild type gB: 19.3 % of WT
[12]
  inhibition of gB-mediated cell-cell fusion by HDIT102(H4) (75 µg/ml), relative to wild type gB: 18.8 % of WT
[13]
  inhibitory concentration for 50% neutralization (IC50) of 100 TCID50 cell-free HSV-1F on Vero cells: 25.5 nM
[14]
  inhibitory concentration for 50% neutralization (IC50) of 100 TCID50 cell-free HSV-2G on Vero cells: 12.5 nM

B4: HDIT102(H4) Fab (Fab, V domains shown)
VH: EVQLVQSGAEVKTPGASVRVSCKASGHTFRTFDINWVRQAAGQGLEWMGWMSPNSGNTGYARQFQGRVTMTRNISANTAYMELRGLRFDDTAVYYCARGPGSTGTTGSMDVWGQGTTVTVSS
VL: QAGLTQPPSVSVAPGKTARISCGGNNIGSKSVHWYQQKPGQAPVLVIYYDSDRPSGIPERFSGSNSGNTATLTISRVEAGDEADYYCQVWDSGSVVFGGGTKLTVLG
notes: also called Fab HDIT102; Fab HDIT102 (H4)
[3]
  Kd: 0.0895 nM
[5]
  koff: 8.85e-05 s⁻¹
  kon: 992000 M⁻¹ s⁻¹
